Test results taken from US20040086947A1.
No end group written: not given here.

What was measured:
[1] = substrate: FPB antiserum (rabbit polyclonal antiserum to human fibrinopeptide B, R4097, bleed I3); assay: competitive ELISA; synthetic FPB in solution against FPB antiserum binding to FPB-coated wells
[2] = substrate: FPB antiserum (rabbit polyclonal antiserum to human fibrinopeptide B, R4097, bleed I3); assay: competitive ELISA; reference synthetic FPB
[3] = substrate: FPB antiserum (rabbit polyclonal antiserum to human fibrinopeptide B, R4097, bleed I3); assay: competitive ELISA; des-arg FPB in solution against FPB antiserum binding to FPB-coated wells

Binder	IC50 [1]	cross-reactivity (IC50 of FPB divided by IC50 of des-arg FPB times 100) [2]	IC50 [3]
QGVNDNEEGFFSAR (also: N-terminal Gln or pyroglutamic acid not given here) [synthetic human fibrinopeptide B (FPB)]	6.7 nM	–	–
QGVNDNEEGFFSA (also: N-terminal Gln or pyroglutamic acid not given here) [synthetic des-arginine fibrinopeptide B (des-arg FPB)]	–	75%	8.9 nM
